Results on eleven molecules are retold here after patent publication US20240182562A1 (ORICELL THERAPEUTICS, published 2024).

B1: c7E3 (antibody, V domains shown)
VH: EVQLQQSGPELVKPGASVKMSCKASGYTFTNYIIHWVKQKPGQGLEWIGYINPYTDGPKYNEKFKGRATLTSDKSSSTAYMEFSSLTSEDSAVYYCARLNRGNAMDYWGQGTSVTVSS
VL: DIVMTQSPSSLTVTVREKVTLSCKSSQSLLNSGNQKNYLTWYQQKPGQPPKLLIYWASTRESGVPDRFTGSGSGTDFTLTISSVQAEDLAVYYCQNVYIYPFTFGAGTKLELKR
B2: c3A6 (antibody, V domains shown)
VH: EVQLVESGGDLVQPGGSLKLSCAASGFTLSRYGMSWVRQTPDKRLEWVSTIISGGINTYYSDSVKGRFSISRDNARNTLYLQMSSLKSEDTAMYYCGRLYYGNAMDYWGQGTAVTVSS
VL: B1 VL with V15A, R16G, L21M, D76H, V97D, I99S, F102L
B3: c14E12 (antibody, V domains shown)
VH: B1 VH with Q6E
VL: DIVMTQSPSSLSVSAGEKVTMSCKSSQSLLNNGNQKNYLAWYQQKPGQPPKLLIYGASTRESGVPDRFTGSGSGTDFALTISSVQAEDLAVYYCQNDLYYPFTFGSGTKLDIKR
B4: c17B10 (antibody, V domains shown)
VH: B1 VH with Q6E
VL: B1 VL with V15A, R16G, L21M, S22N, V97D, I99S, Y100F, A106S, L112I
B5: c5E6 (antibody, V domains shown)
VH: B1 VH with I33V, I34M, H35N, T55N, P58T, K63R, R67K, Y80F, F83V, N100Y
VL: B1 VL
B6: 7E3 (hybridoma clone, murine CLDN18.2 antigen-binding protein) (antibody, V domains shown)
VH: B1 VH
VL: B1 VL
notes: Murine monoclonal antibody tested as hybridoma culture supernatant
B7: 3A6 (hybridoma clone, murine CLDN18.2 antigen-binding protein) (antibody, V domains shown)
VH: B2 VH
VL: B1 VL with V15A, R16G, L21M, D76H, V97D, I99S, F102L
notes: as for B6
B8: 14E12 (hybridoma clone, murine CLDN18.2 antigen-binding protein) (antibody, V domains shown)
VH: B1 VH with Q6E
VL: B3 VL
notes: as for B6
B9: 17B10 (hybridoma clone, murine CLDN18.2 antigen-binding protein) (antibody, V domains shown)
VH: B1 VH with Q6E
VL: B1 VL with V15A, R16G, L21M, S22N, V97D, I99S, Y100F, A106S, L112I
notes: as for B6
B10: 5E6 (hybridoma clone, murine CLDN18.2 antigen-binding protein) (antibody, V domains shown)
VH: B1 VH with I33V, I34M, H35N, T55N, P58T, K63R, R67K, Y80F, F83V, N100Y
VL: B1 VL
notes: as for B6
B11: Standard antibody (antibody, V domains shown)
VH: QVQLQESGPGLIKPSQTLSLTCTVSGGSISSGYNWHWIRQPPGKGLEWIGYIHYTGSTNYNPALRSRVTISVDTSKNQFSLKLSSVTAADTAIYYCARIYNGNSFPYWGQGTTVTVSS
VL: DIVMTQSPDSLAVSLGERATINCKSSQSLFNSGNQKNYLTWYQQKPGQPPKLLIYWASTRESGVPDRFSGSGSGTDFTLTISSLQAEDVAVYYCQNAYSFPYTFGGGTKLEIKR
notes: detected with anti-human IgG-Fc

Numbering of substitutions follows the chain as printed.

The first experiment addresses T1, Cynomolgus monkey CLDN18.2 (cynomolgus monkey).
T1 chain: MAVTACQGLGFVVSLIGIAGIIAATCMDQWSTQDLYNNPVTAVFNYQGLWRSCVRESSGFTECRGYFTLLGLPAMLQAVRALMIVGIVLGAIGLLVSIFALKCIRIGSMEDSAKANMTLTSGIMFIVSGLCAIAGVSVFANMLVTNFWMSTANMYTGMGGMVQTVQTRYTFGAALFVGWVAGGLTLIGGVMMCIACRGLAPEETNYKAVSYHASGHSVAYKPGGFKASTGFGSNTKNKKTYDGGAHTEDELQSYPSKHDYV
Briefly: FACS on 293T-cynomolgus monkey CLDN18.2 cells (FIG. 4).
Procedure: (§1) The species cross-binding activity of the above antigen-binding proteins to mouse CLDN18.2 and cynomolgus monkey CLDN18.2 were tested through FACS on the CytoFLEX flow cytometer (purchased from BECKMAN COULTER Company) using PBS containing 0.1% BSA as a buffer. […] The treated cells were then resuspended in a flow cytometry buffer to the cell density of 1×10⁶ cells/ml, and then added into V-bottom 96-well plates at 30 μl/well. Primary antibodies with initial concentration of 10 ug/ml were gradient diluted with the flow cytometry buffer at a three-fold ratio to form 6 gradients. […] After inoculation at 4° C. for one hour, the plates were washed once with the flow cytometry buffer. The secondary antibody (abcam, Cat #ab98593) was added at 30 μl/well. After incubation at 4° C. for 30 minutes, the plates were washed twice with the flow cytometry buffer and the cells were shaken dispersedly. The flow cytometry buffer was added at 30 μl/well, and then the cells were tested on the flow cytometer. Original data were entered into the software GraphPad8.0 for graphing and calculation.
For B1, the binding result is “binds”.

B2: the binding result is “binds”.

Turning to B3, the binding result was “binds”.

With B4, the binding result is reported as “binds”.

For the molecule B5, the binding result is “binds”.

A further experiment concerns the target T2, Human CLDN18.2 (human, UniProt P56856-2 1-261).
T2 construct: whole, on cells; also called human Claudin18.2; hCLDN18.2
Briefly: FACS, hybridoma culture supernatant on 293T-human CLDN18.2 cells.
Procedure: (§2) The cells were co-incubated at 4° C. for 1 hour and the plates were washed once with the flow cytometry buffer. A corresponding secondary antibody was added at 30 ul/well and co-incubated at 4° C. for 30 minutes and the plates were then washed with the flow cytometry buffer twice. After the cells were shaken loose, the FACS buffer was added at 25 μl/well, and FACS was then performed on the iQue Screener flow cytometer (purchased from IntelliCyt Company). The mother clones that were positive for CLDN18.2 in the primary sorting were picked for expansion culture in 24-well cell culture plates. Three days later, the cell supernatant was taken for re-sorting by FACS. […] The positive hybridoma mother clones were monocloned using a gradient dilution method. After two to three rounds of subcloning and FACS, a monoclonal hybridoma cell secreting a CLDN18.2-specific antibody was obtained.
In turn, B6 gave an Average fluorescence intensity of 48200.

For B7, the Average fluorescence intensity came out at 101000.

In the case of B8, the Average fluorescence intensity is 16600.

For B9, the Average fluorescence intensity worked out at 30600.

In turn, B10 had an Average fluorescence intensity of 108000.

Another experiment has as its target T2, Human CLDN18.2. Briefly: FACS, hybridoma culture supernatant on CHO-human CLDN18.2 cells. (In general: In flow cytometry, cells or beads pass a laser one at a time.)
Procedure: as §2
The molecule B6 had an Average fluorescence intensity of 84800.

B7: the Average fluorescence intensity came to 215000.

In the case of B8, the Average fluorescence intensity is 27600.

In turn, B9 registered an Average fluorescence intensity of 52100.

In turn, B10 gave an Average fluorescence intensity of 293000.

A further experiment concerns the target T2, Human CLDN18.2. Briefly: FACS on SP2/0-hCLDN18.2 cells (FIG. 12).
Procedure: After counting, the SP2/0-hCLDN18.2 cell was resuspended in a flow cytometry buffer, adjusted to the density of 1×10⁶ cells/ml, and then added into V-bottom 96-well plates at 30 μl/well. Primary antibodies with initial working concentration of 80 μg/ml were added at 30 μl/well, and then gradient diluted with the flow cytometry buffer at a four-fold ratio to form 7 gradients. A PBS negative control was set up for each antibody. After inoculation at 4° C. for one hour, the plates were washed once with the flow cytometry buffer. The secondary antibody, i.e., goat F(ab′)2 anti-human IgG-Fc (DyLight® 650) (abcam, Cat #ab98593), was added at 30 μl/well. After inoculation at 4° C. for 30 minutes, the plates were washed twice with the flow cytometry buffer and the cells were shaken dispersedly. The flow cytometry buffer was added at 25 μl/well, and then the cells were ready for FACS on the flow cytometer. In the meanwhile, after counting, the SP2/0-hCLDN18.1 cell was loaded in plates. Primary antibodies with initial working concentration of 10 μg/ml were gradient diluted at a three-fold ratio to form 5 concentration gradients in total. The secondary antibody used was goat F(ab′)2 anti-human IgG-Fc (DyLight® 650) (abcam, Cat #ab98593). Original data were entered into the software GraphPad8.0 for graphing and calculation.
B11: the binding result is given as “binds”.

The target of a further experiment is T3, Mouse CLDN18.2 (mouse, UniProt P56857 10-264).
T3 chain: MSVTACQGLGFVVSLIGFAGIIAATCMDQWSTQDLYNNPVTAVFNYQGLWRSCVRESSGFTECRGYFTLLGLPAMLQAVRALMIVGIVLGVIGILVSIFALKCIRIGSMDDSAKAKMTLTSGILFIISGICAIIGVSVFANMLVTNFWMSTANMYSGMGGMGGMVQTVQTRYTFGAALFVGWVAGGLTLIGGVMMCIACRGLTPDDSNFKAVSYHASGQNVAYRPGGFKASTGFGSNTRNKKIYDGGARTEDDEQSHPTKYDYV
In words: FACS on 293T-mouse CLDN18.2 cells (FIG. 4).
Procedure: as §1
B1: the binding result is given as “binds”.

As to B2, the binding result is recorded as “binds”.

B3: the binding result is “binds”.

Take B4: the binding result is listed as “binds”.

For B5, the binding result is on record as “binds”.
